Here are results for two molecules from patent US20260273042A1 (INTERNATIONAL AIDS VACCINE INITIATIVE, published 2026).

Broadly, the Kd is the concentration at which binding is half-saturated. A low value points to a tighter complex.

One assay deals with BG505 MD53. In words: SPR (ligand and analyte not given).
For another assay, the target named is AC10 Olio6. In words: SPR (ligand and analyte not given).
The next assay deals with MD39-10MUT. In words: SPR, trimer ligand, Fab analyte (1-to-1 fit relatively poor) [panel A]. (In general: Surface plasmon resonance follows binding to a sensor surface in real time, without labels.)

B1: PGT145 (antibody, V domains shown)
VH: QVQLVQSGAEVKKPGSSVKVSCKASGNSFSNHDVHWVRQATGQGLEWMGWMSHEGDKTGLAQKFQGRVTITRDSGASTVYMELRGLTADDTAIYYCLTGSKHRLRDYFLYNEYGPNYEEWGDYLATLDVWGHGTAVTVSS
VL: EVVITQSPLFLPVTPGEAASLSCKCSHSLQHSTGANYLAWYLQRPGQTPRLLIHLATHRASGVPDRFSGSGSGTDFTLKISRVESDDVGTYYCMQGLHSPWTFGQGTKVEIKR
With B1, the Kd turned out to be 22 nM with BG505 MD53 and 53 nM with AC10 Olio6.

B2: PGT151 Fab (Fab, V domains shown)
VH: RVQLVESGGGVVQPGKSVRLSCVVSDFPFSKYPMYWVRQAPGKGLEWVAAISGDAWHVVYSNSVQGRFLVSRDNVKNTLYLEMNSLKIEDTAVYRCARMFQESGPPRLDRWSGRNYYYYSGMDVWGQGTTVTVSS
VL: DIVMTQTPLSLSVTPGQPASISCKSSESLRQSNGKTSLYWYRQKPGQSPQLLVFEVSNRFSGVSDRFVGSGSGTDFTLRISRVEAEDVGFYYCMQSKDFPLTFGGGTKVDLKR
In the assay with MD39-10MUT, B2 registered a Kd of 35 nM. This lies in the double-digit nanomolar range.
